Data set [1] is described as follows: Activity of rLipC or cutinase on p-nitrophenyl esters (release of p-NP at 410 nm). The format is biochemical. As to conditions: for Specific Activity, pNP-butyrate (C4): substrate pNP-butyrate (C4); for Specific Activity, pNP-butyrate (C4) / Specific Activity, pNP-caprate (C10) / Specific Activity, pNP-caprylate (C8) / Specific Activity, pNP-laurate (C12) / Specific Activity, pNP-myristate (C14) / Specific Activity, pNP-valerate (C5): 1 mM, Tris buffer pH 8.0, 300 mM NaCl, 4 mM NaTDC, 15 min; for Specific Activity, pNP-caprate (C10): substrate pNP-caprate (C10); for Specific Activity, pNP-caprylate (C8): substrate pNP-caprylate (C8); for Specific Activity, pNP-laurate (C12): substrate pNP-laurate (C12); for Specific Activity, pNP-myristate (C14): substrate pNP-myristate (C14); for Specific Activity, pNP-valerate (C5): substrate pNP-valerate (C5).

Data set [2] can be described thus: pH-stat, fluorescent and spectrophotometric assays for lipase or phospholipase activity on various lipids. The format is biochemical. An excerpt:
rLipC activity was also investigated using pH-stat, fluorescent and spectrophotometric assays for various lipids, as well as phospholipids, to detect lipase or phospholipase activity, respectively.

Consider “Cutinase F. solani: cutinase from F. solani, comparison enzyme [reference compound]”, for which, in data set [1], the “Specific Activity, pNP-butyrate (C4)” value came out at 382 ± 22 U · mg^−1; the “Specific Activity, pNP-caprate (C10)” value worked out at 9 ± 1 U · mg^−1; the “Specific Activity, pNP-caprylate (C8)” value is recorded as 14 ± 3 U · mg^−1; the “Specific Activity, pNP-laurate (C12)” value is on record as 1 ± 0.4 U · mg^−1. For the same molecule, in data set [1], the “Specific Activity, pNP-myristate (C14)” value was determined as 1 ± 0.2 U · mg^−1 and the “Specific Activity, pNP-valerate (C5)” value was 78 ± 0.5 U · mg^−1.

B1: Rv0220: M. tuberculosis Lip family protein Rv0220 (LipC), recombinant; shown not to be a lipolytic enzyme (protein, UniProt P96402 1-403, looked up)
Esterase LipC: MNQRRAAGSTGVAYIRWLLRARPADYMLALSVAGGSLPVVGKHLKPLGGVTAIGVWGARHASDFLSATAKDLLTPGINEVRRRDRASTQEVSVAALRGIVSPDDLAVEWPAPERTPPVCGALRHRRYVHRRRVLYGDDPAQLLDVWRRKDMPTKPAPVLIFVPGGAWVHGSRAIQGYAVLSRLAAQGWVCLSIDYRVAPHHRWPRHILDVKTAIAWARANVDKFGGDRNFIAVAGCSAGGHLSALAGLTANDPQYQAELPEGSDTSVDAVVGIYGRYDWEDRSTPERARFVDFLERVVVQRTIDRHPEVFRDASPIQRVTRNAPPFLVIHGSRDCVIPVEQARSFVERLRAVSRSQVGYLELPGAGHGFDLLDGARTGPTAHAIALFLNQVHRSRAQFAKEVI
Take B1: in data set [1], the “Specific Activity, pNP-butyrate (C4)” value is on record as 133 × 10^−3 U · mg^−1; the “Specific Activity, pNP-caprate (C10)” value is listed as 2 × 10^−3 U · mg^−1; the “Specific Activity, pNP-caprylate (C8)” value was 22 × 10^−3 U · mg^−1; the “Specific Activity, pNP-laurate (C12)” value is listed as 0 U · mg^−1. Also, in data set [1], the “Specific Activity, pNP-myristate (C14)” value was 0 U · mg^−1 and the “Specific Activity, pNP-valerate (C5)” value is recorded as 111 × 10^−3 U · mg^−1. Besides, the “Hydrolysis of esters function associated with a fatty acyl chain having more than 10 carbons” value in data set [1] (summary of Table 1) is “not able to hydrolyse”. Besides, the “Long-chain triglycerides (TG) hydrolysis” value in data set [2] (cloned and characterized protein, see example 1) is given as “no long-chain triglycerides (TG) hydrolysis was detected”. In addition, in data set [2] (pH-stat, fluorescent and spectrophotometric assays, whatever the carbon chain length), the “Activity on triglycerides, diglycerides or monoglycerides as substrate” value is listed as “does not show any activity”.

(Values after patent US9274110B2, “Diagnosis method of active tuberculosis” (priority 2011, dated 2016).)
